In the domain aggregation screens of Martell et al. (2025):

Assay: soluble fraction after stress (log2 fold change); higher = more stays soluble; pooled small domains, quantitative proteomics
Details: stress: pH 4
In short: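 Pooled custom libraries of small protein domains were subjected to pH 4 and measured by high-throughput quantitative proteomics. The log2 fold change in soluble amount per domain is reported, higher values meaning more remained soluble. This is used as a measure of aggregation propensity.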

Sequence | soluble fraction (log2)
HMPKSKTPDDAAEEFRTAFSALDMDGKVTVKDMAEYMGVIDKTVYARLKKMGDEFTLDKGVITKKT | -0.084
HMFKNWMPFDEARIFVRKLKFNSHDEFRKYLKANEINIPSKPWSTYKGKGWVSIGDFLGTHR | -0.308
HMIILYTDEQQRIIDRLNEFIGEQPSQNEAAKLLGISAPILTNLRKGTYTGTVDKFMNKLAAYFNIKADLG | -0.372
HMRKIEDVLRLHAQGMSTRRIALATGVGKTTVIEYLRRAAVAGLSWPLPEGLDEEALERRVFPPPP | 0.282
HMKPVPPLNGTSLRDLALGYAGRYATTAARLKHYLQRKLRERGWGGEDEPDLDGLVARLVELGYVNDEVF | -0.723
HMIKVAANESNRSDVLEIVRLFRVRVVDVNPESLTIEATGAEGKIDALLGLLEHYGVIELVRSGAVAVT | -1.1
HMGTHVVQEGEYLDLIIEKTIPGSPIRKDLLRKAFVKLNPSAFGGRGNPNYIFARKKLKVPSVEDLKAVIF | -0.36
HMEKKGTVVIATVKGDIHDIGKNIVKVLLENYGFDVIDLGKDVPPEAVVEAVQQSGARLVGLSALM | -0.577
HMDRPARDEAQSWLADVLADGPVPTAEIREEAEAAGLAWRTIQRARIALSVEPIRGDGRNAWLWQLPG | 0.377
HMELGYTPNNLRSVRAKYGLTQKQVAEITGLKTWHPVNRWEAPVEAAYHADMPHTKWLKLLDELSSR | -0.0144
HMVPPVVRTIYGAGGKMTATFLFPGGYEVDAASGAELPGKYRVESISLDQVVLTDKDGNRVPVGFSSVAPT | -0.161
HMQNLSELAYVNLRDALMQGQMKPGEELPLRPISRSFGISATPMREALLRLVTESALEMDSRGRISVP | -0.183
HMFEMPTSLVRTLSAIAIKQPVMQSEIIKLRGAGAYDHIKELIIRELVHRKEEGRSPILTTTKKFQEYFRL | -0.948
HMNKNQGVTTTNLNFRKSASTSSLVLYTIPKNTTLDILDKLPSGWYKVKYKGLTGYVSGSYV | 0.22
HMGTKRWELPRRVQQMATQHGKSISTAAAEELVSRSGENTRMLDNDLVKLAQMVEAPQIELADVERWIVR | 0.335
HMTSVPGTVVTNANLRGGPGTNYPIVGKAPAGTTVNVVESTADRTWYYLDTGSWIAAFLVKLS | -0.229
HMPEGTYLEKLAIENNNLQLIGLSREASQLVQLLQDAPQWRKVNLTGVLQADGAASGRDRFTMTAELQ | 0.187
HMDKKEFGKRLKNLRIRNKMSQQAMADSLGYTSRSTINKIEEGINEMSYDKIVRLMELYGLSRPDLGLEPI | -0.157
HMPDFLAELAARMERDAVTEAQIRQVVAQKGHYPEEVSPAQYHPDFFRQWLFPHWEKIVDVIRSSPEYTP | -0.539

Sequence | soluble fraction (log2)
HMSQESIMPNLVGSTEDEAKAIAVEYGFQLNVISRVNNSQYPAGVIIDQNVDEGVRIKAGYPVGVTIS | -0.0416
HMLGSVRTIRQVLDDGRLIVADGGGNPSVIRRSGALAHETFANGQRVIVDPSGRLALELLPD | 0.315
HMELEQLKSQLTGFLKANREQIFTAQNLADGLRMTDSQGYKQVVNALNASVRDGDVIDIKNGYQYNKN | -0.0153
HMDKEQVTFIFRDIDIALRSLDYPIKDIKNTLNIIKSEFSNSKSTELNEQKINFENILKEAISILENND | -0.969
HMQDVVFTVDKDQTGAEIGDMLYEKGIISSPTTFRLALRLTGSMDKLQQGYYQIPQNASLRQVIALLQKG | -0.522
HMDNIEIGNRIREIRIKKNISVFELAYRTKTSQSHIYQIEGGSQNMSIELLFKIADTLETDPNTILGV | -2.25
HMTDPVLYEERDDIAIITINRPEKKNTLTDAVIQGIADGIDAATKSADVVAVVLRGAGDTLTAGYDLTA | -1.28
HMYNIDSFMTKNYPTMERFTLSDVQKKYKTTFGLFVKQDELASMIEKTGRFNITSSKNVKYVNR | 0.313
HMKDITPASEDQLKAITDLMLKVNGEWSDAFFTFISKKFNHQISSPEQLTTFEANTIIDMLRKKAEG | 0.22
HMKKLTGVQKAAILMIALGPDISSSIIKRLPENMVERITYEIANMTKITAQQRNDILKEFMDMTVAQ | -0.479
HMGQYSTTLDKIENSLFGFTYSNEAENTRINRIENKVYGKTSTSQTSTRIAKLKKDLSVDEMG | -0.00491
HMEYTTEELDSLLKLYFQTHESINRNEFEQLTSYTRTTASRRLKTLVQAGKLQNIGLYRFPVYKPTEGNF | -0.037
HMFYNELMNFIVYKDSQKIGKIVNINDKLPQPVFEVLINDKKFMVPIHDDFIEKIDKEKKSIHIVIPDGLL | -1.01
HMKIYDQVVDRIKDRISKGDMPQGSALPPERQLIDELNVSRSSLREGFRILEMMGLIESIPGKGRFVRTSR | -0.619
HMDQINNDLRKLIEFLPEDQKTVLKMRHFQEMSFKEIAKATGVSINTALGRMRYALINLRKLIEENEI | -0.903
HMPRELKVRDVSHQHAGHAGWREGGETHFEVDMKADVFAGTSRVAAHRMVNKVLANELASRVHALQLNLS | -0.308
HMSTANISIEQAKEIALNHANLTSNQVIFSRTELDYDNGIQKYEVEFYYNNREYSYEINANTGDILGYEQ | -0.417
HMNPNEVQIPDLVNKTEDEAEQILKDLKLKLVVKSEEYNENIEKGKIISQDPPYQENYTIKEHSEISIVIS | -0.415
HMTSRWEIGYNVAKKYYDEHGNLDVERAVYDNFELKKWLNTQRYKNSAGTLAEKYKIKLDELGMNWER | -0.00494
